According to US20030017160:

T1: GST-Cdc25C, P30307
T1 chain: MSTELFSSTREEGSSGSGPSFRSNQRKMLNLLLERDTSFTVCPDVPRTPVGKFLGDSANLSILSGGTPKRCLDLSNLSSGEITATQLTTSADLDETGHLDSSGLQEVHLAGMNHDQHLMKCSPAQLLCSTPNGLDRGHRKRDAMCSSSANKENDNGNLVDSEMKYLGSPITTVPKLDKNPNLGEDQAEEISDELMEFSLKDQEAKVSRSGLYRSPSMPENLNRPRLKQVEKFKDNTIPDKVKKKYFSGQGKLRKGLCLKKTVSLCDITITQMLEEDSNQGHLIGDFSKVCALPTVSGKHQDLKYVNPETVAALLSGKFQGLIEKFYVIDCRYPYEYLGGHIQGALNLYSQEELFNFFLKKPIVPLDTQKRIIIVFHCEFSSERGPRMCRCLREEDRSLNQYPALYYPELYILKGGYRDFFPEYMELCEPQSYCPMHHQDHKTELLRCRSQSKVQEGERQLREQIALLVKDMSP


Experiments:
[1] = biological target: T1, GST-Cdc25C, P30307
[2] = biological target: 6his-Cdc2, P06493
Chain of 6his-Cdc2, P06493 (P06493 whole entry, looked up): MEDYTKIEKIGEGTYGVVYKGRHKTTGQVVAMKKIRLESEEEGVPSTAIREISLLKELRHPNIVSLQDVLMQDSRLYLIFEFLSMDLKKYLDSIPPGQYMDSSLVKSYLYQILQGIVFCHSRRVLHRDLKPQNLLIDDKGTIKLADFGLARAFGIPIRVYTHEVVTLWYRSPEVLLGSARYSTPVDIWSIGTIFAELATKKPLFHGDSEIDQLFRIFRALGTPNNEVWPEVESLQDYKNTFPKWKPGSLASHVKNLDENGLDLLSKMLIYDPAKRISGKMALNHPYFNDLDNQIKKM

Row | Protein | GST-Cdc25 phosphatase activity (loss of the slower migrating phosphorylated forms of Cdc2 on gel) [1] | phosphorylation with gamma-32P ATP, SDS-PAGE and autoradiography [1] | Cdc2 dephosphorylation by gel-mobility analysis [2]
1 | 6his-Chk1 (protein) MAVPFVEDWDLVQTLGEGAYGEVQLAVNRVTEEAVAVKIVDMKRAVDCPENIKKEICINKMLNHENVVKFYGHRREGNIQYLFLEYCSGGELFDRIEPDIGMPEPDAQRFFHQLMAGVVYLHGIGITHRDIKPENLLLDERDNLKISDFGLATVFRYNNRERLLNKMCGTLPYVAPELLKRREFHAEPVDVWSCGIVLTAMLAGELPWDQPSDSCQEYSDWKEKKTYLNPWKKIDSAPLALLHKILVENPSARITIPDIKKDRWYNKPLKKGAKRPRVTSGGVSESPSGFSKHIQSNLDFSPVNSASSEENVKYSSSQPEPRTGLSLWDTSPSYIDKLVQGISFSQPTCPDHMLLNSQLLGTPGSSQNPWQRLVKRMTRFFTKLDADKSYQCLKETCEKLGYQWKKSCMNQVTISTTDRRNNKLIFKVNLLEMDDKILVDFRLSKGDGLEFKRHFLKIKGKLIDIVSSQKIWLPAT | Prior phosphorylation of GST-Cdc25 by 6his-Chk1 leads to a dose-dependent reduction in GST-Cdc25 activity | GST-Cdc25 was phosphorylated by 6his-Chk1 and by 6his-hCDS1 | 
2 | GST-Cdc25C (protein) MSTELFSSTREEGSSGSGPSFRSNQRKMLNLLLERDTSFTVCPDVPRTPVGKFLGDSANLSILSGGTPKRCLDLSNLSSGEITATQLTTSADLDETGHLDSSGLQEVHLAGMNHDQHLMKCSPAQLLCSTPNGLDRGHRKRDAMCSSSANKENDNGNLVDSEMKYLGSPITTVPKLDKNPNLGEDQAEEISDELMEFSLKDQEAKVSRSGLYRSPSMPENLNRPRLKQVEKFKDNTIPDKVKKKYFSGQGKLRKGLCLKKTVSLCDITITQMLEEDSNQGHLIGDFSKVCALPTVSGKHQDLKYVNPETVAALLSGKFQGLIEKFYVIDCRYPYEYLGGHIQGALNLYSQEELFNFFLKKPIVPLDTQKRIIIVFHCEFSSERGPRMCRCLREEDRSLNQYPALYYPELYILKGGYRDFFPEYMELCEPQSYCPMHHQDHKTELLRCRSQSKVQEGERQLREQIALLVKDMSP |  |  | GST-Cdc25 catalyses a reduction in the slower migrating phosphorylated forms of Cdc2
